# From patent publication US20100129294A1
# Target: Aβ40 fibrils formed from a synthetic Aβ40 peptide (human)
# Assay: cell-based or functional assay
substance,measurement,value
nattokinase (from UniProt P35835 107-381) (enzyme),"rate of Aβ fibril degradation (37 C, pH 7.4, ThT binding assay)",0.015 s⁻¹
